The chains are these.
B1: Example 43 (peptide)
chain: YXQGTFTSDFSKXLDKKAQXAFIEYLLEXGPSSGAPPPGGS
modifications: acylated Lys; Aib, αMeL non-natural; C-terminal amide; synthetic construct; SITE 2: note = 2-Aminoisobutyric Acid; SITE 13: note = alpha-methyl-leucine; SITE 17: note = Lysine is chemically modified through conjugation of the epsilon-amino group of the Lysine side chain with (2-[2-(2-Amino-ethoxy)-ethoxy]-acetyl)-(gamma-Glu)-CO-(CH2) 18-CO2H; SITE 20: n
B2: Example 46 (peptide)
chain: B1 chain with A35E, G39S, G40E, S41G
modifications: Aib, αMeL; acylated Lys; C-terminal amide; synthetic construct; SITE 2: note = 2-Aminoisobutyric Acid; SITE 13: note = alpha-methyl-leucine; SITE 17: note = Lysine is chemically modified through conjugation of the epsilon-amino group of the Lysine side chain with (2-[2-(2-Amino-ethoxy)-ethoxy]-acetyl)-(gamma-Glu)-CO-(CH2) 16-CO2H; SITE 20: n
B3: Example 49 (peptide)
chain: B1 chain with L27I, X29G, G39S, G40E, S41G
modifications: not fully specified; acylated side chain; synthetic construct; SITE 2: note = 2-Aminoisobutyric Acid; SITE 13: note = alpha-methyl-leucine; SITE 17: note = Lysine is chemically modified through conjugation of the epsilon-amino group of the Lysine side chain with (2-[2-(2-Amino-ethoxy)-ethoxy]-acetyl)-(gamma-Glu)-CO-gamma -gamma-(CH2)16-CO2H
B4: Example 48 (peptide)
chain: B1 chain with X29G, G39S, G40E, S41G
modifications: not fully specified; synthetic construct; SITE 2: note = 2-Aminoisobutyric Acid; SITE 13: note = alpha-methyl-leucine; SITE 17: note = Lysine is chemically modified through conjugation of the epsilon-amino group of the Lysine side chain with (2-[2-(2-Amino-ethoxy)-ethoxy]-acetyl)-(gamma-Glu)-CO-(CH2) 16-CO2H; SITE 20: n
B5: Example 45 (peptide)
chain: B1 chain with G39S
modifications: Aib, αMeL, acylated Lys, C-terminal amide; synthetic construct; SITE 2: note = 2-Aminoisobutyric Acid; SITE 13: note = alpha-methyl-leucine; SITE 17: note = Lysine is chemically modified through conjugation of the epsilon-amino group of the Lysine side chain with (2-[2-(2-Amino-ethoxy)-ethoxy]-acetyl)-(gamma-Glu)-CO-(CH2) 18-CO2H; SITE 20: n
B6: Example 41 (peptide)
chain: B1 chain with K12R, X29G
modifications: Aib, αMeL; acylated Lys; C-terminal amide; synthetic construct; SITE 2: note = 2-Aminoisobutyric Acid; SITE 13: note = alpha-methyl-leucine; SITE 17: note = Lysine is chemically modified through conjugation of the epsilon-amino group of the Lysine side chain with (2-[2-(2-Amino-ethoxy)-ethoxy]-acetyl)-(gamma-Glu)-CO-(CH2) 18-CO2H; SITE 20: n
B7: Example 57 (peptide)
chain: B1 chain with G39S, G40E, S41G
modifications: synthetic construct; SITE 2: note = 2-Aminoisobutyric Acid; SITE 13: note = alpha-methyl-leucine; SITE 17: note = Lysine is chemically modified through conjugation of the epsilon-amino group of the Lysine side chain with (2-[2-(2-Amino-ethoxy)-ethoxy]-acetyl)-(gamma-Glu)-CO-(CH2) 16-CO2H; SITE 20: n
B8: Example 50 (peptide)
chain: B1 chain with K12X, X29G, G39S, G40E, S41G
modifications: synthetic construct; SITE 2: note = 2-Aminoisobutyric Acid; SITE 12: note = L-ornithine; SITE 13: note = alpha-methyl-leucine; SITE 17: note = Lysine is chemically modified through conjugation of the epsilon-amino group of the Lysine side chain with (2-[2-(2-Amino-ethoxy)-ethoxy]-acetyl)-(gamma-Glu)
B9: Example 58 (peptide)
chain: B1 chain with X29G, G39S, G40E, S41G
modifications: synthetic construct; SITE 2: note = 2-Aminoisobutyric Acid; SITE 13: note = alpha-methyl-leucine; SITE 17: note = Lysine is chemically modified through conjugation of the epsilon-amino group of the Lysine side chain with (gamma-Glu)2-CO-(CH2)16-CO2H; SITE 20: note = 2-Aminoisobutyric Acid; SITE 41:

Changes are numbered by the printed parent chain.

Chain of hGLP-1R (P43220 24-463): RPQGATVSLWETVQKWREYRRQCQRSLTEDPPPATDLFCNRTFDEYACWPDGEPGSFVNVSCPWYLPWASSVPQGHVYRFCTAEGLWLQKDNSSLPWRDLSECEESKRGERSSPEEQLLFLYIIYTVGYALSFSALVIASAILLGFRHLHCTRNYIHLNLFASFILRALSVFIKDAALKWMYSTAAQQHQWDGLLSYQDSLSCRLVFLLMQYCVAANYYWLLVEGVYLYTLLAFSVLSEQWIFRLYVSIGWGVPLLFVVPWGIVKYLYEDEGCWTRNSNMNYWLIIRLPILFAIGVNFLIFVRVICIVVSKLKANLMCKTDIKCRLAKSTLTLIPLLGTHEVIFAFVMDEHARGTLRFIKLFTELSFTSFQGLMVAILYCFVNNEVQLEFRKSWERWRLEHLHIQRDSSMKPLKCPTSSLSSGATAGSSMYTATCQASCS

One test has as its target hGLP-1R (Homo sapiens, UniProt P43220). Put plainly: cell-based or functional assay.
As to B1, the Relative cAMP EC50 is 1.55 nM and the cAMP Rel EC50 (in the presence of 1% HSA) was 539 nM.
With B2, the Relative cAMP EC50 worked out at 4.04 nM and the cAMP Rel EC50 (in the presence of 1% HSA) was 601 nM.
On to B3, for which the Relative cAMP EC50 came to 0.706 nM and the cAMP Rel EC50, nM (in the presence of 1% HSA) is 151 nM.
As for B4, the Relative cAMP EC50 is 2.99 nM and the cAMP Rel EC50, nM (in the presence of 1% HSA) turned out to be 570 nM.
On to B5, for which the Relative cAMP EC50 amounted to 1.52 nM and the cAMP Rel EC50 (in the presence of 1% HSA) came to 493 nM.
For the molecule B6, the Relative cAMP EC50 was 2.2 nM and the cAMP Rel EC50 (in the presence of 1% HSA) was 711 nM.
For the molecule B7, the Relative cAMP EC50 was found to be 3.06 nM and the cAMP Rel EC50, nM (in the presence of 1% HSA) was 42.7 nM.
The like results for B8 were, in that order, 4.65 nM and 1110 nM.
Consider B9, for which the Relative cAMP EC50 stood at 2.93 nM and the cAMP Rel EC50, nM (in the presence of 1% HSA) stood at 20.7 nM.

The target of another test is T1, human GIP receptor (human) (UniProt P48546).
T1 sequence (looked up): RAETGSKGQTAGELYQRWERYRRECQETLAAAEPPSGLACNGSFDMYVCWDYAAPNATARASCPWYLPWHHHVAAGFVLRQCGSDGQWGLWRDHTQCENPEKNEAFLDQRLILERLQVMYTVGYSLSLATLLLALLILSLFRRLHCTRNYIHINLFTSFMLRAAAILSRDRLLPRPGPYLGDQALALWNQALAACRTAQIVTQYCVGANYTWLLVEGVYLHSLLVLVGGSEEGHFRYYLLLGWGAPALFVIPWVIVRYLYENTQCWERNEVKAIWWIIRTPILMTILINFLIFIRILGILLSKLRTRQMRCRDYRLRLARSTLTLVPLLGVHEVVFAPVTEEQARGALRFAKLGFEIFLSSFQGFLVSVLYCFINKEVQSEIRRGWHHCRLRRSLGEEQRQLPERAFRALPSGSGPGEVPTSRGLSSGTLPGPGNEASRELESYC
The experiment in a line: cell-based or functional assay.
With B1, the Relative cAMP EC50 was 0.101 nM and the cAMP Rel EC50 (in the presence of 1% HSA) was 29.6 nM.
Regarding B2, the Relative cAMP EC50 was found to be 0.0947 nM and the cAMP Rel EC50 (in the presence of 1% HSA) is 19.6 nM.
As for B3, the Relative cAMP EC50 turned out to be 0.324 nM and the cAMP Rel EC50, nM (in the presence of 1% HSA) is 44.9 nM.
In the same order, the values of B4 are 0.27 nM and 46.9 nM.
For B5, the Relative cAMP EC50 stood at 0.112 nM and the cAMP Rel EC50 (in the presence of 1% HSA) was determined as 33.4 nM.
Turning to B6, the Relative cAMP EC50 is 0.258 nM and the cAMP Rel EC50 (in the presence of 1% HSA) amounted to 97.9 nM.
Turning to B7, the Relative cAMP EC50 came out at 0.098 nM and the cAMP Rel EC50, nM (in the presence of 1% HSA) stood at 3.78 nM.
For the molecule B8, the Relative cAMP EC50 was 0.29 nM and the cAMP Rel EC50, nM (in the presence of 1% HSA) amounted to 69.6 nM.
Turning to B9, the Relative cAMP EC50 is 0.175 nM and the cAMP Rel EC50, nM (in the presence of 1% HSA) is 3.75 nM.

For a further test, the target named is human GLP1-R (SNAP-GLP-1R expressed in HEK293 cells) (human) (UniProt P43220). Put plainly: cell-based or functional assay.
Chain of human GLP1-R (SNAP-GLP-1R expressed in HEK293 cells) (human) (P43220 24-463): as the sequence (P43220 24-463) above
The molecule B1 had a GLP1R Internalization EC50 of 58.2 nM and an Internalization % TOP of 68.3%.
As to B2, the GLP1R Internalization EC50 was determined as 41 nM and the Internalization % TOP is 58.1%.
In turn, B3 gave a GLP1R Internalization EC50 of 37.2 nM and an Internalization % TOP of 53.2%.
On to B4, for which the GLP1R Internalization EC50 turned out to be 44 nM and the Internalization % TOP turned out to be 55.2%.
With B5, the GLP1R Internalization EC50 was 52.6 nM and the Internalization % TOP came to 62.1%.
In the same order, the values of B6 are 83.7 nM and 62.3%.
Molecule B7 returned a GLP1R Internalization EC50 of 76.6 nM and an Internalization % TOP of 73.1%.
The like results for B8 were, in that order, 30.1 nM and 31.1%.
In turn, B9 gave a GLP1R Internalization EC50 of 56.2 nM and an Internalization % TOP of 78.1%.

The target in the next test is human glucagon receptor (human) (UniProt P47871). The experiment in a line: cell-based or functional assay.
Chain of human glucagon receptor (human) (P47871 26-477): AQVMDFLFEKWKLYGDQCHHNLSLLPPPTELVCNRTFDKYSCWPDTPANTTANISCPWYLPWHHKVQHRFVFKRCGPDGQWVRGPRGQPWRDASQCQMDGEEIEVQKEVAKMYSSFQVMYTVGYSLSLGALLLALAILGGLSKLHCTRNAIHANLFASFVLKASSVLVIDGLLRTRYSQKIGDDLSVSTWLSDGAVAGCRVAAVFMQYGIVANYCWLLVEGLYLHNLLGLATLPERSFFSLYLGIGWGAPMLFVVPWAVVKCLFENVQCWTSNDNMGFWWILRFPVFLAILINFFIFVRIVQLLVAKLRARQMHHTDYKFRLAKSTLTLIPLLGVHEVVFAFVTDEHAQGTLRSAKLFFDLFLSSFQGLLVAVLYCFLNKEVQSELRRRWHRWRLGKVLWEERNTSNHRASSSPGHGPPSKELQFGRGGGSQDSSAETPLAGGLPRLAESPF
Consider B1, for which the Relative cAMP EC50 came to 2.71 nM and the cAMP Rel EC50 (in the presence of 1% HSA) is 850 nM.
In the case of B2, the Relative cAMP EC50 came to 1.53 nM and the cAMP Rel EC50 (in the presence of 1% HSA) is 393 nM.
Consider B3, for which the Relative cAMP EC50 worked out at 5.54 nM and the cAMP Rel EC50, nM (in the presence of 1% HSA) turned out to be 1310 nM.
In the same order, the values of B4 are 3.8 nM and 728 nM.
As to B5, the Relative cAMP EC50 worked out at 2.08 nM and the cAMP Rel EC50 (in the presence of 1% HSA) is 879 nM.
Consider B6, for which the Relative cAMP EC50 was 8.59 nM and the cAMP Rel EC50 (in the presence of 1% HSA) worked out at 2310 nM.
As for B7, the Relative cAMP EC50 is 4.37 nM and the cAMP Rel EC50, nM (in the presence of 1% HSA) was 113 nM.
With B8, the Relative cAMP EC50 came out at 4.25 nM and the cAMP Rel EC50, nM (in the presence of 1% HSA) was determined as 1040 nM.
In the case of B9, the Relative cAMP EC50 was determined as 4.86 nM and the cAMP Rel EC50, nM (in the presence of 1% HSA) turned out to be 115 nM.

(Values after patent publication US20240270821A1, “GIP/GLP1/GCG TRI-RECEPTOR AGONISTS AND USES THEREOF” (priority 2023, published 2024).)
